The values below come from patent publication US20150190466.

This data set has as its target T1, N-terminus tagged ILDR2.
T1 sequence (Q71H61 whole entry, species assumed, looked up): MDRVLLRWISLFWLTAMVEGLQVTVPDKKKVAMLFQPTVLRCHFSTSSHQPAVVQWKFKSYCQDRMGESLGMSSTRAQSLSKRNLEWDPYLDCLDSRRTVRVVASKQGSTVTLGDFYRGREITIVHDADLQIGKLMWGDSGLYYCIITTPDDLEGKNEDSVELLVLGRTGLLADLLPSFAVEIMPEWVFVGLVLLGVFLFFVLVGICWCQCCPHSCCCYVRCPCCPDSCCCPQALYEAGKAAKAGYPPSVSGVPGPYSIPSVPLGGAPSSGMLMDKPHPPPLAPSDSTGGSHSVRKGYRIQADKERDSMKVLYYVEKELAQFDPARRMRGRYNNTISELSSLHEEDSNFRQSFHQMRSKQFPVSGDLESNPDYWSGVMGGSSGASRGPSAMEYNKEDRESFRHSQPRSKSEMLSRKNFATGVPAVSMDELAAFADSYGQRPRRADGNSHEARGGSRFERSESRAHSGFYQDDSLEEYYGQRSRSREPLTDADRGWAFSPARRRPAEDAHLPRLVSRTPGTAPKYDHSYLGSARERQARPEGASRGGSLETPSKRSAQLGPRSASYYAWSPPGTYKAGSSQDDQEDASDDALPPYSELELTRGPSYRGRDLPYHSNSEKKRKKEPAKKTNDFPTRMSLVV

B1: V5-tagged PERK (protein)
chain: VAPARSLLAPASETVFGLGAAAAPTSAARVPAVATAEVTVEDAEALPAAAGEPESRATEPDDDVELRPRGRSLVIISTLDGRIAALDAENDGKKQWDLDVGSGSLVSSSLSKPEVFGNKMIIPSLDGDLFQWDRDRESMEAVPFTVESLLESSYKFGDDVVLVGGKSLITYGLSAYSGKLRYICSALGCRRWDSDEMEEEEDILLLQRTQKTVRAVGPRSGSEKWNFSVGHFELRYIPDMETRAGFIESTFKPGGNKEDSKIISDVEEQEATMLDTVIKVSVADWKVMAFSRKGGRLEWEYQFCTPIASAWLVRDGKVIPISLFDDTSYTASEEALGDEEDIVEAARGATENSVYLGMYRGQLYLQSSVRVSEKFPTSPKALESVNGENAIIPLPTIKWKPLIHSPSRTPVLVGSDEFDKCLSNDKYSHEEYSNGALSILQYPYDNGYYLPYYKRERNKRSTQITVRFLDSPHYSKNIRKKDPILLLHWWKEIFGTILLCIVATTFIVRRLFHPQPHRQRKESETQCQTESKYDSVSADVSDNSWNDMKYSGYVSRYLTDFEPIQCMGRGGFGVVFEAKNKVDDCNYAIKRIRLPNRELAREKVMREVKALAKLEHPGIVRYFNAWLETPPEKWQEEMDEIWLKDESTDWPLSSPSPMDAPSVKIRRMDPFSTKEQIEVIAPSPERSRSFSVGISCGQTSSSESQFSPLEFSGTDCGDNSDSADAAYNLQDSCLTDCEDVEDGTVDGNDEGHSFELCPSEASPYTRSREGTSSSIVFEDSGCGNASSKEEPRGNRLHDGNHYVNKLTDLKCSSSRSSSEATTLSTSPTRPTTLSLDFTKNTVGQLQPSSPKVYLYIQMQLCRKENLKDWMNRRCSLEDREHGVCLHIFLQIAEAVEFLHSKGLMHRDLKPSNIFFTMDDVVKVGDFGLVTAMDQDEEEQTVLTPMPAYATHTGQVGTKLYMSPEQIHGNNYSHKVDIFSLGLILFELLYPFSTQMERVRILTDVRNLKFPLLFTQKYPQEHMMVQDMLSPSPTERPEATDIIENAIFENLEFPGKTVLRQRSRSMSSSGTKHSRQPSCSYSPLPGN
With B1, the “cleavage of ILDR2 (western blot of ILDR2 fragments after co-transfection)” value is “N-terminus-tagged ILDR2 was also decreased by PERK, but cleaved ILDR2 was not detected”.
